Results published in patent US20130078188A1.

Target: thrombin (endogenous, in developing blood clots of mice) (mouse) (UniProt P19221)
Test: cell-based or functional assay

Sequence of hirudin (P01050 whole entry): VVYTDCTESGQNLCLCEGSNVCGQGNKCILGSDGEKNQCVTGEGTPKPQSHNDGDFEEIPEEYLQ

hirudin (from UniProt P01050 1-65)
inhibition of the Cy5/Cy7 ratio increase of … in tail clots of mice: > 90%
